Test results reported in US20230143604A1, “QW DOSING OF GIP RECEPTOR AGONIST PEPTIDE COMPOUNDS AND USES THEREOF” (TAKEDA PHARMACEUTICAL COMPANY LIMITED, priority 2020, published 2023).
Starred links: 1 amine or outer side, 2 acyl side, 3 side chain; linkers in the order of their positions; H or OH if unused. Non-standard residues stand in square brackets, D forms with d. Groups on a side chain read outwards from the residue. No end group written: not given here. *: point of attachment. 2OEGgEgE‑C18 diacid = O=C(O)CCCCCCCCCCCCCCCCC(=O)N[C@@H](CCC(=O)N[C@@H](CCC(=O)NCCOCCOCC(=O)NCCOCCOCC(=O)*)C(=O)O)C(=O)O; C18 diacid = O=C(O)CCCCCCCCCCCCCCCCC(=O)*; C17 diacid = O=C(O)CCCCCCCCCCCCCCCC(=O)*; γGlu = O=C(O)[C@H](CCC(=O)[*:2])N[*:1]; NMeY = CN[C@@H](Cc1ccc(O)cc1)C(=O)O; AEEA = NCCOCCOCC(=O)O; E∗ = not defined here; K∗ = not defined here; Aib = CC(C)(N)C(=O)O

T1: full-length human GIPR with an N-terminal FLAG tag (human, UniProt P48546 22-466)
T1 sequence (looked up): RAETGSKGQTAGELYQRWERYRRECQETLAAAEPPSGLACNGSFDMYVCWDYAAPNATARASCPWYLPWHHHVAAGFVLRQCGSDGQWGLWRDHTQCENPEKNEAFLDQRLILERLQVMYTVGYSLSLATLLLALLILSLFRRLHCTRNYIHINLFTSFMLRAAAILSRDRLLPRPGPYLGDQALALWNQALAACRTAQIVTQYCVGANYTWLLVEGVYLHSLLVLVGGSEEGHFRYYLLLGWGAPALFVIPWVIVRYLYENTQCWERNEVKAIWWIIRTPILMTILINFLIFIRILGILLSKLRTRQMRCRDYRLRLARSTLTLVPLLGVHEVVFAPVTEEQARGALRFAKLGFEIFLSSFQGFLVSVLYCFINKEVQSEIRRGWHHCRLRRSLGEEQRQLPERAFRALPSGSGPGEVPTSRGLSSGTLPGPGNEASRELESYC

T2: full-length human GIPR with an N-terminal FLAG tag, overexpressed on HEK-293T cells (human, UniProt P48546 22-466)
T2 sequence (looked up): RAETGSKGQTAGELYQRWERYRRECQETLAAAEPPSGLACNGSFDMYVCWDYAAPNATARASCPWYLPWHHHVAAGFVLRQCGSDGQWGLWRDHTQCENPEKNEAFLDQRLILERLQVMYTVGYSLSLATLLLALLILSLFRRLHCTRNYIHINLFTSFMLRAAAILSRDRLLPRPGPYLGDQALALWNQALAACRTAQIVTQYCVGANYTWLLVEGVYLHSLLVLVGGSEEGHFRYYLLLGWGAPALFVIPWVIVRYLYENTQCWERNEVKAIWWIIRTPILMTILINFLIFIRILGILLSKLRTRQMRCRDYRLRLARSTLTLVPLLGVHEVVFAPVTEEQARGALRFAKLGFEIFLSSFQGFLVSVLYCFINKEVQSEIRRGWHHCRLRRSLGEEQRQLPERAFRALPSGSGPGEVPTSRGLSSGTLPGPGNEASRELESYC


How the values were obtained:
Experiment in all cases: cell-based or functional assay
[1] = target: full-length human GLP-1R with an N-terminal FLAG tag (human, UniProt P43220 24-463)
[2] = target: T1, full-length human GIPR with an …
[3] = target: T2, full-length human GIPR with an …

Row | Binder | Human GLP1R cAMP EC50, HEK293T [1] | Human GIPR cAMP EC50, HEK293T [2] | Human GIPR cAMP EC50, HEK293T [3]
1 | [NMeY][Aib]EGTFISDYSIALDR[Aib]K([AEEA-AEEA-γGlu-γGlu-C17 diacid])Q[Aib]NFVNWLLAQSGGGGS-NH2 [Compound No. 31] | 170 nM | 0.0003 nM | 
2 | [NMeY][Aib]EGTFISDYSI[Aib]K([AEEA-AEEA-γGlu-γGlu-C18 diacid])DR[Aib]AQ[Aib]NFVNWLLAQRPSSGAPPPS-NH2 [Compound No. 28] | 20.9 nM | 0.0003 nM | 
3 | YXEGTFISDYSIAXDRXAQXDFVNWLLAQSPSSGAPPPS (N-methyl Tyr 1; Aib at 2,17,20; Lys(G5-C18 diacid) at 14; C-terminal NH2) [Compound No. 38] | 45.7 nM | 0.0006 nM | 
4 | YXEGTFISDYSIAXDRXAQXNFVNWLLAQRPSSGAPPPS (N-methyl Tyr 1; Aib at 2,17,20; Lys(G5-C18 diacid) at 14; C-terminal OH) [Compound No. 44] | 10.7 nM | 0.0017 nM | 
5 | YXEGTFISDYSIAXDRXAQXDFVNWLLAQRPSSGAPPPS (N-methyl Tyr 1; Aib at 2,17,20; Lys(G5-C18 diacid) at 14; C-terminal OH) [Compound No. 43] | 61.7 nM | 0.001 nM | 
6 | YXEGTFISDYSIAXDRXAQXNFVNWLLAQSPSSGAPPPS (N-methyl Tyr 1; Aib at 2,17,20; Lys(G5-C18 diacid) at 14; C-terminal OH) [Compound No. 45] | 8.22 nM | 0.0006 nM | 
7 | YXEGTFISDYSIXXDRXAQXDFVNWLLAQSPSSGAPPPS (N-methyl Tyr 1; Aib at 2,13,17,20; Lys(G5-C18 diacid) at 14; C-terminal OH) [Compound No. 47] | 148 nM | 0.0008 nM | 
8 | YXEGTFISDYSIXXDRXAQXDFVNWLLAQSPSSGAPPPS (N-methyl Tyr 1; Aib at 2,13,17,20; Lys(G5-C18 diacid) at 14; C-terminal NH2) [Compound No. 48] | 87.1 nM | 0.0007 nM | 
9 | YXEGTFISDYSIALDRXAQXDFVNWLLAQRPSSGAPPPS (N-methyl Tyr 1; Aib at 2,20; Lys(G5-C18 diacid) at 17; C-terminal OH) [Compound No. 51] | 14.8 nM | 0.0006 nM | 
10 | [NMeY][Aib]EGTFISDYSIALDR[Aib]K(2OEGgEgE‑C18 diacid)Q[Aib]NFVNWLLAQSG-OH (N-terminus assumed; SMILES CC[C@H](C)[C@H](NC(=O)[C@H](CO)NC(=O)[C@H](Cc1ccc(O)cc1)NC(=O)[C@H](CC(=O)O)NC(=O)[C@H](CO)NC(=O)[C@@H](NC(=O)[C@H](Cc1ccccc1)NC(=O)[C@@H](NC(=O)CNC(=O)[C@H](CCC(=O)O)NC(=O)C(C)(C)NC(=O)[C@H](Cc1ccc(O)cc1)NC)[C@@H](C)O)[C@@H](C)CC)C(=O)N[C@@H](C)C(=O)N[C@@H](CC(C)C)C(=O)N[C@@H](CC(=O)O)C(=O)N[C@@H](CCCNC(=N)N)C(=O)NC(C)(C)C(=O)N[C@@H](CCCCNC(=O)COCCOCCNC(=O)COCCOCCNC(=O)CC[C@H](NC(=O)CC[C@H](NC(=O)CCCCCCCCCCCCCCCCC(=O)O)C(=O)O)C(=O)O)C(=O)N[C@@H](CCC(N)=O)C(=O)NC(C)(C)C(=O)N[C@@H](CC(N)=O)C(=O)N[C@@H](Cc1ccccc1)C(=O)N[C@H](C(=O)N[C@@H](CC(N)=O)C(=O)N[C@@H](Cc1c[nH]c2ccccc12)C(=O)N[C@@H](CC(C)C)C(=O)N[C@@H](CC(C)C)C(=O)N[C@@H](C)C(=O)N[C@@H](CCC(N)=O)C(=O)N[C@@H](CO)C(=O)NCC(=O)O)C(C)C) [Compound No. 46] | 105 nM | 0.0003 nM | 
11 | [NMeY][Aib]EGTFISDYSI[Aib]LDR[Aib]AQ[Aib]NFVNWLLAQK([AEEA-AEEA-γGlu-γGlu-C17 diacid])GGGGS-NH2 [Compound No. 33] | 437 nM | 0.0008 nM | 
12 | Me-Y[Aib]EGTFISDYSIALDR[Aib]HQQ[E∗]FV[K∗]WLLAQK([AEEA-AEEA-γGlu-C18 diacid])PSSGAPPPS-NH2 (not fully specified (residue 1); reading uncertain; also: E* at 21 and K* at 24 marked, meaning not given here) [Compound No. 181] |  |  | 0.0004 nM
13 | [NMeY][Aib]EGTFISDYSIAEDRKHQ[Aib]NFVNWLLAQK([AEEA-AEEA-γGlu-C18 diacid])PSSGAPPPS-NH2 (also: E* at 14 and K* at 17 marked * (not explained)) [Compound No. 184] |  |  | 0.0005 nM
14 | [NMeY][Aib]EGTFISDYSI[Aib]K([AEEA-AEEA-γGlu-γGlu-C17 diacid])DR[Aib]AQ[Aib]NFVNWLLAQRGGGGS-NH2 [Compound No. 32] | 1000 nM | 0.0003 nM | 
15 | [NMeY][Aib]EGTFISDYSIALDR[Aib]K([AEEA-AEEA-γGlu-C17 diacid])Q[Aib]DFVNWLLAQRPSSGAPPPS-NH2 [Compound No. 25] | 145 nM | 0.0019 nM | 
16 | [NMeY][Aib]EGTFISDYSIALDR[Aib]AQ[Aib]K([AEEA-AEEA-γGlu-γGlu-C17 diacid])FVNWLLAQRGGGGS-NH2 [Compound No. 30] | 105 nM | 0.0006 nM | 
17 | [NMeY][Aib]EGTFISDYSIALDR[Aib]AQ[Aib]K(2OEGgEgE‑C18 diacid)FVNWLLAQSG-OH [Compound No. 42] | 5.5 nM | 0.0008 nM | 
18 | [NMeY][Aib]EGTFISDYSIALDRIHQ[Aib]NFVNWLLAQK([AEEA-AEEA-γGlu-C18 diacid])PSSGAPPPS-NH2 [Compound No. 2] | 525 nM | 0.0003 nM | 
19 | [NMeY][Aib]EGTFISDYSIAK([G5-γGlu-C18 diacid])DR[Aib]AQ[Aib]DFVNWLLAQRPSSGAPPPS-NH2 [Compound No. 24] | 191 nM | 0.0004 nM | 
20 | [NMeY][Aib]EGTFISDYSI[Aib]K([AEEA-AEEA-γGlu-γGlu-C17 diacid])DR[Aib]AQ[Aib]NFVNWLLAQSPSSGAPPPS-NH2 [Compound No. 29] | 417 nM | 0.0004 nM | 
21 | [NMeY][Aib]EGTFISDYSI[Aib]LDRK([AEEA-AEEA-γGlu-γGlu-C18 diacid])AQ[Aib]NFVNWLLAQRPSSGAPPPS-NH2 [Compound No. 26] | 38.9 nM | 0.0003 nM | 
22 | [NMeY][Aib]EGTFISDYSIAK([AEEA-AEEA-γGlu-C18 diacid])DRIHQQNFVNWLLAQRPSSGAPPPS-NH2 [Compound No. 3] | 10.5 nM | 0.0006 nM | 
23 | [NMeY][Aib]EGTFISDYSIALDR[Aib]K(2OEGgEgE‑C18 diacid)Q[Aib]DFVNWLLAQRG-OH (N-terminus assumed; SMILES CC[C@H](C)[C@H](NC(=O)[C@H](CO)NC(=O)[C@H](Cc1ccc(O)cc1)NC(=O)[C@H](CC(=O)O)NC(=O)[C@H](CO)NC(=O)[C@@H](NC(=O)[C@H](Cc1ccccc1)NC(=O)[C@@H](NC(=O)CNC(=O)[C@H](CCC(=O)O)NC(=O)C(C)(C)NC(=O)[C@H](Cc1ccc(O)cc1)NC)[C@@H](C)O)[C@@H](C)CC)C(=O)N[C@@H](C)C(=O)N[C@@H](CC(C)C)C(=O)N[C@@H](CC(=O)O)C(=O)N[C@@H](CCCNC(=N)N)C(=O)NC(C)(C)C(=O)N[C@@H](CCCCNC(=O)COCCOCCNC(=O)COCCOCCNC(=O)CC[C@H](NC(=O)CC[C@H](NC(=O)CCCCCCCCCCCCCCCCC(=O)O)C(=O)O)C(=O)O)C(=O)N[C@@H](CCC(N)=O)C(=O)NC(C)(C)C(=O)N[C@@H](CC(=O)O)C(=O)N[C@@H](Cc1ccccc1)C(=O)N[C@H](C(=O)N[C@@H](CC(N)=O)C(=O)N[C@@H](Cc1c[nH]c2ccccc12)C(=O)N[C@@H](CC(C)C)C(=O)N[C@@H](CC(C)C)C(=O)N[C@@H](C)C(=O)N[C@@H](CCC(N)=O)C(=O)N[C@@H](CCCNC(=N)N)C(=O)NCC(=O)O)C(C)C) [Compound No. 49] | 107 nM | 0.0006 nM | 
24 | [NMeY][Aib]EGTFISDYSIALDR[Aib]AQ[Aib]K([AEEA-AEEA-γGlu-γGlu-C18 diacid])FVNWLLAQRPSSGAPPPS-NH2 [Compound No. 35] | 89.1 nM | 0.0007 nM | 
25 | [NMeY][Aib]EGTFISDYSIAK([G5-γGlu-γGlu-C18 diacid])DR[Aib]AQ[Aib]NFVNWLLAQRPSSGAPPPS-NH2 [Compound No. 34] | 1000 nM | 0.0004 nM | 
